Experimental data as given in patent publication US20140274782A1, “AFFINITY REAGENTS AND METHODS FOR DETECTION, PURIFICATION, AND PROTEOMIC ANALYSIS OF METHYLATED PROTEINS” (The Board of Trustees of the Leland Stanford Junior …, priority 2013, published 2014).

T1: G9a and GLP (Homo sapiens, UniProt Q96KQ7+Q9H9B1)
T1 sequence (Q96KQ7 2-1210 limits assumed): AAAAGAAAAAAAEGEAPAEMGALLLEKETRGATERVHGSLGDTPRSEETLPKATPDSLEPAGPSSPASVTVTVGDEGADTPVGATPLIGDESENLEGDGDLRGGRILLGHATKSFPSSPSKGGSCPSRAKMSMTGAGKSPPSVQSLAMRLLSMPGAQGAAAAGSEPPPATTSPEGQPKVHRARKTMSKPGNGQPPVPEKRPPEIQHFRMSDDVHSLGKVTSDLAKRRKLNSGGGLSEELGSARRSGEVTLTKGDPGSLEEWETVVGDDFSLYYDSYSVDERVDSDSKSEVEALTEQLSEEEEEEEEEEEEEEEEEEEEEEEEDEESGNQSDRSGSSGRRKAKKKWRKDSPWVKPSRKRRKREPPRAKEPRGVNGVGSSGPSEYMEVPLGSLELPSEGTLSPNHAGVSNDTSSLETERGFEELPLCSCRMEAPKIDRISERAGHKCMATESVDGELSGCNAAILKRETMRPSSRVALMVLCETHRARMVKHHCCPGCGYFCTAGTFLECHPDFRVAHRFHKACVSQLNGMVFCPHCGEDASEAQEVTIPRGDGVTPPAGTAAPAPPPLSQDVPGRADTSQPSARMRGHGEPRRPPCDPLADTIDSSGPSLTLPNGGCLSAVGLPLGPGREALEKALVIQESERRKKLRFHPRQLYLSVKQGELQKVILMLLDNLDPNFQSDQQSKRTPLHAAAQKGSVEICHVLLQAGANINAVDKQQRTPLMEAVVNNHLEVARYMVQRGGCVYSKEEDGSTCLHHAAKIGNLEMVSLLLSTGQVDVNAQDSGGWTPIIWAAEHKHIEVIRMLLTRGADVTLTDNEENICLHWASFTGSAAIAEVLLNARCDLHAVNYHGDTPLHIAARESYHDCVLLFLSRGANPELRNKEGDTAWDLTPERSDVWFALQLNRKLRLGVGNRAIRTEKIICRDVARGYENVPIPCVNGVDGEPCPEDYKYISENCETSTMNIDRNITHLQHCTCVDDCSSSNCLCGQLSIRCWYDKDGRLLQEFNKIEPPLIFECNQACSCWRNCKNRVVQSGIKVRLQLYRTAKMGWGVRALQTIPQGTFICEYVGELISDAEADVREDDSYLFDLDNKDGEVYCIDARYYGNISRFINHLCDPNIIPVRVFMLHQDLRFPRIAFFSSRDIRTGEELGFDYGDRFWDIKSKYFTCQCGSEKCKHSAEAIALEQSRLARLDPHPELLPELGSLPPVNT
T1 sequence (Q9H9B1 2-1298 limits assumed): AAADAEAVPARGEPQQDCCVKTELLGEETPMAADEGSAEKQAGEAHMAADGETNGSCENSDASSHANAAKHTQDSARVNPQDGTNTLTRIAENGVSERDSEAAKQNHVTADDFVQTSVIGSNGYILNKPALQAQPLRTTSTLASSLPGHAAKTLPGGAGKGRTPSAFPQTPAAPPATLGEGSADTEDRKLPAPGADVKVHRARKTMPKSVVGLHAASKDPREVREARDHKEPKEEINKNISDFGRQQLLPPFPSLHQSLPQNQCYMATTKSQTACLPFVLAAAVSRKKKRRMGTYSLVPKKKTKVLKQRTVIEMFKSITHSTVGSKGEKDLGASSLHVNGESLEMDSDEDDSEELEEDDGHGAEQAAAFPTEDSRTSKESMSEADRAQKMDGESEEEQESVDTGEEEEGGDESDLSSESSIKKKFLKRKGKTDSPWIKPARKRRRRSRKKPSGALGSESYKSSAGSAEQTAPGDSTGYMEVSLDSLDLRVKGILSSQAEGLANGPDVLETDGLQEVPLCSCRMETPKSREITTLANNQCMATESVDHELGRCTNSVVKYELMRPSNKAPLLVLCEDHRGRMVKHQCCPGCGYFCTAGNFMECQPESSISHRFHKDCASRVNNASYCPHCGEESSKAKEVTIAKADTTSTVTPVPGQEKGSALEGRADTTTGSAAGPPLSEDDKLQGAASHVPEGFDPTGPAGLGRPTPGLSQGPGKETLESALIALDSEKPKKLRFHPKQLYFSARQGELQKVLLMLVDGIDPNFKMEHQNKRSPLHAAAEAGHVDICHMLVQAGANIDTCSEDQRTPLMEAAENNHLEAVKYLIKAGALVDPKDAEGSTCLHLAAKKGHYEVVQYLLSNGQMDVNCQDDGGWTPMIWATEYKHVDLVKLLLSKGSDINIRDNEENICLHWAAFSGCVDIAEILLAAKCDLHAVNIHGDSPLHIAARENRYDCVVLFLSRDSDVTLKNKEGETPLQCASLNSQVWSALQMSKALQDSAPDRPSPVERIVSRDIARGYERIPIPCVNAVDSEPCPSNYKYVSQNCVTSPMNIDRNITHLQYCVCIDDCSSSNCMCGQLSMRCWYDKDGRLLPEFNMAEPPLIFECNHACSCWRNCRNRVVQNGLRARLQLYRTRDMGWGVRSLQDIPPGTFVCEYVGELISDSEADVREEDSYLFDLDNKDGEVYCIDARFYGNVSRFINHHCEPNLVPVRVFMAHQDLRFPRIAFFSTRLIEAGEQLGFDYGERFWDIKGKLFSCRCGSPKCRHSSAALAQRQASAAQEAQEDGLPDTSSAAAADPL

B1: RBM3 (protein, UniProt P98179 1-157, looked up)
RNA-binding protein 3: MSSEEGKLFVGGLNFNTDEQALEDHFSSFGPISEVVVVKDRETQRSRGFGFITFTNPEHASVAMRAMNGESLDGRQIRVDHAGKSARGTRGGGFGAHGRGRSYSRGGGDQGYGSGRYYDSRPGGYGYGYGRSRDYNGRNQGGYDRYSGGNYRDNYDN
B2: ZNF598 (protein, UniProt Q86UK7 1-904, looked up)
E3 ubiquitin-protein ligase …: MAAAGGAEGRRAALEAAAAAAPERGGGSCVLCCGDLEATALGRCDHPVCYRCSTKMRVLCEQRYCAVCREELRQVVFGKKLPAFATIPIHQLQHEKKYDIYFADGKVYALYRQLLQHECPRCPELPPFSLFGDLEQHMRRQHELFCCRLCLQHLQIFTYERKWYSRKDLARHRMQGDPDDTSHRGHPLCKFCDERYLDNDELLKHLRRDHYFCHFCDSDGAQDYYSDYAYLREHFREKHFLCEEGRCSTEQFTHAFRTEIDLKAHRTACHSRSRAEARQNRHIDLQFSYAPRHSRRNEGVVGGEDYEEVDRYSRQGRVARAGTRGAQQSRRGSWRYKREEEDREVAAAVRASVAAQQQEEARRSEDQEEGGRPKKEEAAARGPEDPRGPRRSPRTQGEGPGPKETSTNGPVSQEAFSVTGPAAPGCVGVPGALPPPSPKLKDEDFPSLSASTSSSCSTAATPGPVGLALPYAIPARGRSAFQEEDFPALVSSVPKPGTAPTSLVSAWNSSSSSKKVAQPPLSAQATGSGQPTRKAGKGSRGGRKGGPPFTQEEEEDGGPALQELLSTRPTGSVSSTLGLASIQPSKVGKKKKVGSEKPGTTLPQPPPATCPPGALQAPEAPASRAEGPVAVVVNGHTEGPAPARSAPKEPPGLPRPLGSFPCPTPQEDFPALGGPCPPRMPPPPGFSAVVLLKGTPPPPPPGLVPPISKPPPGFSGLLPSPHPACVPSPATTTTTKAPRLLPAPRAYLVPENFRERNLQLIQSIRDFLQSDEARFSEFKSHSGEFRQGLISAAQYYKSCRDLLGENFQKVFNELLVLLPDTAKQQELLSAHTDFCNREKPLSTKSKKNKKSAWQATTQQAGLDCRVCPTCQQVLAHGDASSHQALHAARDDDFPSLQAIARIIT
B3: PRPF40A (protein, UniProt O75400 1-957, looked up)
Pre-mRNA-processing factor 40 …: MRPGTGAERGGLMVSEMESHPPSQGPGDGERRLSGSSLCSGSWVSADGFLRRRPSMGHPGMHYAPMGMHPMGQRANMPPVPHGMMPQMMPPMGGPPMGQMPGMMSSVMPGMMMSHMSQASMQPALPPGVNSMDVAAGTASGAKSMWTEHKSPDGRTYYYNTETKQSTWEKPDDLKTPAEQLLSKCPWKEYKSDSGKPYYYNSQTKESRWAKPKELEDLEGYQNTIVAGSLITKSNLHAMIKAEESSKQEECTTTSTAPVPTTEIPTTMSTMAAAEAAAAVVAAAAAAAAAAAAANANASTSASNTVSGTVPVVPEPEVTSIVATVVDNENTVTISTEEQAQLTSTPAIQDQSVEVSSNTGEETSKQETVADFTPKKEEEESQPAKKTYTWNTKEEAKQAFKELLKEKRVPSNASWEQAMKMIINDPRYSALAKLSEKKQAFNAYKVQTEKEEKEEARSKYKEAKESFQRFLENHEKMTSTTRYKKAEQMFGEMEVWNAISERDRLEIYEDVLFFLSKKEKEQAKQLRKRNWEALKNILDNMANVTYSTTWSEAQQYLMDNPTFAEDEELQNMDKEDALICFEEHIRALEKEEEEEKQKSLLRERRRQRKNRESFQIFLDELHEHGQLHSMSSWMELYPTISSDIRFTNMLGQPGSTALDLFKFYVEDLKARYHDEKKIIKDILKDKGFVVEVNTTFEDFVAIISSTKRSTTLDAGNIKLAFNSLLEKAEAREREREKEEARKMKRKESAFKSMLKQAAPPIELDAVWEDIRERFVKEPAFEDITLESERKRIFKDFMHVLEHECQHHHSKNKKHSKKSKKHHRKRSRSRSGSDSDDDDSHSKKKRQRSESRSASEHSSSAESERSYKKSKKHKKKSKKRRHKSDSPESDAEREKDKKEKDRESEKDRTRQRSESKHKSPKKKTGKDSGNWDTSGSELSEGELEKRRRTLLEQLDDDQ

Assays:
[1] = test system: 3×MBT domain of L3MBTL1; experiment: Triple SILAC pull-down, 3xMBT/3xMBTD355N ratio (cytoplasmic, nuclear and chromatin fractions of 293T cells); format: binding, human; settings: SILAC ratio, pull-down 3xMBT vs 3xMBTD355N; for 3xMBT/D355N UNC Heavy: experiment with UNC0638 in heavy SILAC media; for 3xMBT/D355N UNC Light: experiment with UNC0638 in light SILAC media;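 on all read-outs here: proteins quantified with MaxQuant, requiring at least two unique peptides and quantification in both label directions, normalized to the mean of proteins from a digested loading control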
[2] = target: T1, G9a and GLP; experiment: Triple SILAC pull-down after UNC0638 treatment of 293T cells, DMSO/UNC0638 ratio of protein captured by 3×MBT; format: cell-based; set-up: cells were treated for 24 hours with UNC0638 at 2.5 μM or DMSO vehicle control; endogenous in cells; host or cells: HEK 293T; settings: for Relative to UNC0638 UNC Heavy / Relative to UNC0638 UNC Light: SILAC ratio DMSO/UNC0638 of protein pulled down with 3xMBT; for Relative to UNC0638 UNC Heavy: UNC0638 in heavy SILAC media; for Relative to UNC0638 UNC Light: UNC0638 in light SILAC media; for Relative to UNC0638 Average: average of UNC Light and UNC Heavy experiments;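 on all read-outs here: mass spectrometry (Q-Exactive) SILAC quantitation, DMSO/UNC0638 ratio computed after subtracting 3×MBTD355N mutant pull-down background, only proteins with at least twofold 3×MBT over mutant signal considered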

Molecule | 3xMBT/D355N UNC Heavy [1] [log base 2] | 3xMBT/D355N UNC Light [1] [log base 2] | Relative to UNC0638 UNC Heavy [2] [log base 2] | Relative to UNC0638 UNC Light [2] [log base 2] | Relative to UNC0638 Average [2] [log base 2]
B1 | 3.49 | 3.25 | 0.24 | 0.33 | 0.29
B2 | 1.92 | 3.58 | 0.52 | 0.06 | 0.29
B3 | 3.54 | 2.13 | 0.33 | 0.24 | 0.29
